The values that follow come from article PMC3520067.

In this assay the target is H3K4Me3 peptide. The assay is described as follows: ITC.

Usually Kd stands for a measure of binding affinity in units of concentration. A higher Kd goes with a looser complex. As to “recombinant SPIN1 (from UniProt Q9Y657 1-262) (natural protein)”, the dissociation constant Kd amounted to 1100 nM.
The result for MORC3 CW domain (domain or fragment) reads 600 nM.
